Data reported in US20240270846A1 (published 2024).

Target: T1, CD3 epsilon homodimer protein (UniProt P07766 23-126)
T1 construct: Immobilized on Sensor chip CM4 by amine coupling; construct not described; also called CD3 (CD3 epsilon)
Assay: SPR Biacore T200, CD3 epsilon homodimer on CM4 chip, antibody as analyte;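 note: Amine-coupled CD3 epsilon homodimer, run at 25 °C in HBS-EP+ buffer, ratio is bound amount of each single-residue H chain variant over that of the parent antibody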

T1 sequence (P07766 23-126): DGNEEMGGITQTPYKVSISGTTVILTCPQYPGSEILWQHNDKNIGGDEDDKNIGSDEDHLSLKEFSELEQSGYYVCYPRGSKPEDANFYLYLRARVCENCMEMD

Binder | ratio of amounts bound (Y/X vs CE115HA000)
CE115HA000 D101A one-arm antibody (antibody, human IgG1, kappa, L234A L235A, N297A, name in Kabat numbering, one-arm antibody (one Fab)) heavy: QVQLVESGGGVVQPGRSLRLSCAASGFTFSNAWMHWVRQAPGKGLEWVAQIKAKSNNYATYYAESVKGRFTISRDDSKNSLYLQMNSLKTEDTAVYYCRYVHYGAYYGVAAWGQGTTVTVSSASTKGPSVFPLAPSSKSTSGGTAALGCLVKDYFPEPVTVSWNSGALTSGVHTFPAVLQSSGLYSLSSVVTVPSSSLGTQTYICNVNHKPSNTKVDKKVEPKSCDKTHTCPPCPAPEAAGGPSVFLFPPKPKDTLMISRTPEVTCVVVDVSHEDPEVKFNWYVDGVEVHNAKTKPREEQYASTYRVVSVLTVLHQDWLNGKEYKCKVSNKALPAPIEKTISKAKGQPREPQVYTLPPSRCELTKNQVSLSCAVKGFYPSDIAVEWESNGQPENNYKTTPPVLDSDGSFFLVSKLTVDKSRWQQGNVFSCSVMHEALHNHYTQKSLSLSPDYKDDDDK EPKSSDKTHTCPPCPAPELLGGPSVFLFPPKPKDTLMISRTPEVTCVVVDVSHEDPEVKFNWYVDGVEVHNAKTKPREEQYNSTYRVVSVLTVLHQDWLNGKEYKCKVSNKALPAPIEKTISKAKGQPREPQVCTLPPSRDELTKNQVSLWCLVKGFYPSDIAVEWESNGQPENNYKTTPPVLDSDGSFFLYSKLTVDKSRWQQGNVFSCSVMHEALHNRYTQKSLSLSP light: DIVMTQSPLSLPVTPGEPASISCRSSQSLVHSNRNTYLHWYQQKPGQAPRLLIYKVSNRFSGVPDRFSGSGSGTDFTLKISRVEAEDVGVYYCGQGTQVPYTFGQGTKLEIKRTVAAPSVFIFPPSDEQLKSGTASVVCLLNNFYPREAKVQWKVDNALQSGNSQESVTEQDSKDSTYSLSSTLTLSKADYEKHKVYACEVTHQGLSSPVTKSFNRGEC | 1.26
CE115HA000 A56L one-arm antibody (antibody, human IgG1, kappa, L234A L235A, N297A, name in Kabat numbering, one-arm antibody (one Fab)) heavy: QVQLVESGGGVVQPGRSLRLSCAASGFTFSNAWMHWVRQAPGKGLEWVAQIKAKSNNYLTYYAESVKGRFTISRDDSKNSLYLQMNSLKTEDTAVYYCRYVHYGAYYGVDAWGQGTTVTVSSASTKGPSVFPLAPSSKSTSGGTAALGCLVKDYFPEPVTVSWNSGALTSGVHTFPAVLQSSGLYSLSSVVTVPSSSLGTQTYICNVNHKPSNTKVDKKVEPKSCDKTHTCPPCPAPEAAGGPSVFLFPPKPKDTLMISRTPEVTCVVVDVSHEDPEVKFNWYVDGVEVHNAKTKPREEQYASTYRVVSVLTVLHQDWLNGKEYKCKVSNKALPAPIEKTISKAKGQPREPQVYTLPPSRCELTKNQVSLSCAVKGFYPSDIAVEWESNGQPENNYKTTPPVLDSDGSFFLVSKLTVDKSRWQQGNVFSCSVMHEALHNHYTQKSLSLSPDYKDDDDK EPKSSDKTHTCPPCPAPELLGGPSVFLFPPKPKDTLMISRTPEVTCVVVDVSHEDPEVKFNWYVDGVEVHNAKTKPREEQYNSTYRVVSVLTVLHQDWLNGKEYKCKVSNKALPAPIEKTISKAKGQPREPQVCTLPPSRDELTKNQVSLWCLVKGFYPSDIAVEWESNGQPENNYKTTPPVLDSDGSFFLYSKLTVDKSRWQQGNVFSCSVMHEALHNRYTQKSLSLSP light: DIVMTQSPLSLPVTPGEPASISCRSSQSLVHSNRNTYLHWYQQKPGQAPRLLIYKVSNRFSGVPDRFSGSGSGTDFTLKISRVEAEDVGVYYCGQGTQVPYTFGQGTKLEIKRTVAAPSVFIFPPSDEQLKSGTASVVCLLNNFYPREAKVQWKVDNALQSGNSQESVTEQDSKDSTYSLSSTLTLSKADYEKHKVYACEVTHQGLSSPVTKSFNRGEC | 0.8
CE115HA000 A56Q one-arm antibody (antibody, human IgG1, kappa, L234A L235A, N297A, name in Kabat numbering, one-arm antibody (one Fab)) heavy: QVQLVESGGGVVQPGRSLRLSCAASGFTFSNAWMHWVRQAPGKGLEWVAQIKAKSNNYQTYYAESVKGRFTISRDDSKNSLYLQMNSLKTEDTAVYYCRYVHYGAYYGVDAWGQGTTVTVSSASTKGPSVFPLAPSSKSTSGGTAALGCLVKDYFPEPVTVSWNSGALTSGVHTFPAVLQSSGLYSLSSVVTVPSSSLGTQTYICNVNHKPSNTKVDKKVEPKSCDKTHTCPPCPAPEAAGGPSVFLFPPKPKDTLMISRTPEVTCVVVDVSHEDPEVKFNWYVDGVEVHNAKTKPREEQYASTYRVVSVLTVLHQDWLNGKEYKCKVSNKALPAPIEKTISKAKGQPREPQVYTLPPSRCELTKNQVSLSCAVKGFYPSDIAVEWESNGQPENNYKTTPPVLDSDGSFFLVSKLTVDKSRWQQGNVFSCSVMHEALHNHYTQKSLSLSPDYKDDDDK EPKSSDKTHTCPPCPAPELLGGPSVFLFPPKPKDTLMISRTPEVTCVVVDVSHEDPEVKFNWYVDGVEVHNAKTKPREEQYNSTYRVVSVLTVLHQDWLNGKEYKCKVSNKALPAPIEKTISKAKGQPREPQVCTLPPSRDELTKNQVSLWCLVKGFYPSDIAVEWESNGQPENNYKTTPPVLDSDGSFFLYSKLTVDKSRWQQGNVFSCSVMHEALHNRYTQKSLSLSP light: DIVMTQSPLSLPVTPGEPASISCRSSQSLVHSNRNTYLHWYQQKPGQAPRLLIYKVSNRFSGVPDRFSGSGSGTDFTLKISRVEAEDVGVYYCGQGTQVPYTFGQGTKLEIKRTVAAPSVFIFPPSDEQLKSGTASVVCLLNNFYPREAKVQWKVDNALQSGNSQESVTEQDSKDSTYSLSSTLTLSKADYEKHKVYACEVTHQGLSSPVTKSFNRGEC | 0.76
CE115HA000 A56N one-arm antibody (antibody, human IgG1, kappa, L234A L235A, N297A, name in Kabat numbering, one-arm antibody (one Fab)) heavy: QVQLVESGGGVVQPGRSLRLSCAASGFTFSNAWMHWVRQAPGKGLEWVAQIKAKSNNYNTYYAESVKGRFTISRDDSKNSLYLQMNSLKTEDTAVYYCRYVHYGAYYGVDAWGQGTTVTVSSASTKGPSVFPLAPSSKSTSGGTAALGCLVKDYFPEPVTVSWNSGALTSGVHTFPAVLQSSGLYSLSSVVTVPSSSLGTQTYICNVNHKPSNTKVDKKVEPKSCDKTHTCPPCPAPEAAGGPSVFLFPPKPKDTLMISRTPEVTCVVVDVSHEDPEVKFNWYVDGVEVHNAKTKPREEQYASTYRVVSVLTVLHQDWLNGKEYKCKVSNKALPAPIEKTISKAKGQPREPQVYTLPPSRCELTKNQVSLSCAVKGFYPSDIAVEWESNGQPENNYKTTPPVLDSDGSFFLVSKLTVDKSRWQQGNVFSCSVMHEALHNHYTQKSLSLSPDYKDDDDK EPKSSDKTHTCPPCPAPELLGGPSVFLFPPKPKDTLMISRTPEVTCVVVDVSHEDPEVKFNWYVDGVEVHNAKTKPREEQYNSTYRVVSVLTVLHQDWLNGKEYKCKVSNKALPAPIEKTISKAKGQPREPQVCTLPPSRDELTKNQVSLWCLVKGFYPSDIAVEWESNGQPENNYKTTPPVLDSDGSFFLYSKLTVDKSRWQQGNVFSCSVMHEALHNRYTQKSLSLSP light: DIVMTQSPLSLPVTPGEPASISCRSSQSLVHSNRNTYLHWYQQKPGQAPRLLIYKVSNRFSGVPDRFSGSGSGTDFTLKISRVEAEDVGVYYCGQGTQVPYTFGQGTKLEIKRTVAAPSVFIFPPSDEQLKSGTASVVCLLNNFYPREAKVQWKVDNALQSGNSQESVTEQDSKDSTYSLSSTLTLSKADYEKHKVYACEVTHQGLSSPVTKSFNRGEC | 0.87

Other lines, results leading:

ratio of amounts bound (Y/X vs CE115HA000) | Binder
0.28 | CE115HA000 A99D one-arm antibody (antibody, human IgG1, kappa, L234A L235A, N297A, name in Kabat numbering, one-arm antibody (one Fab)) heavy: QVQLVESGGGVVQPGRSLRLSCAASGFTFSNAWMHWVRQAPGKGLEWVAQIKAKSNNYATYYAESVKGRFTISRDDSKNSLYLQMNSLKTEDTAVYYCRYVHYGDYYGVDAWGQGTTVTVSSASTKGPSVFPLAPSSKSTSGGTAALGCLVKDYFPEPVTVSWNSGALTSGVHTFPAVLQSSGLYSLSSVVTVPSSSLGTQTYICNVNHKPSNTKVDKKVEPKSCDKTHTCPPCPAPEAAGGPSVFLFPPKPKDTLMISRTPEVTCVVVDVSHEDPEVKFNWYVDGVEVHNAKTKPREEQYASTYRVVSVLTVLHQDWLNGKEYKCKVSNKALPAPIEKTISKAKGQPREPQVYTLPPSRCELTKNQVSLSCAVKGFYPSDIAVEWESNGQPENNYKTTPPVLDSDGSFFLVSKLTVDKSRWQQGNVFSCSVMHEALHNHYTQKSLSLSPDYKDDDDK EPKSSDKTHTCPPCPAPELLGGPSVFLFPPKPKDTLMISRTPEVTCVVVDVSHEDPEVKFNWYVDGVEVHNAKTKPREEQYNSTYRVVSVLTVLHQDWLNGKEYKCKVSNKALPAPIEKTISKAKGQPREPQVCTLPPSRDELTKNQVSLWCLVKGFYPSDIAVEWESNGQPENNYKTTPPVLDSDGSFFLYSKLTVDKSRWQQGNVFSCSVMHEALHNRYTQKSLSLSP light: DIVMTQSPLSLPVTPGEPASISCRSSQSLVHSNRNTYLHWYQQKPGQAPRLLIYKVSNRFSGVPDRFSGSGSGTDFTLKISRVEAEDVGVYYCGQGTQVPYTFGQGTKLEIKRTVAAPSVFIFPPSDEQLKSGTASVVCLLNNFYPREAKVQWKVDNALQSGNSQESVTEQDSKDSTYSLSSTLTLSKADYEKHKVYACEVTHQGLSSPVTKSFNRGEC
0.66 | CE115HA000 A56Y one-arm antibody (antibody, human IgG1, kappa, L234A L235A, N297A, name in Kabat numbering, one-arm antibody (one Fab)) heavy: QVQLVESGGGVVQPGRSLRLSCAASGFTFSNAWMHWVRQAPGKGLEWVAQIKAKSNNYYTYYAESVKGRFTISRDDSKNSLYLQMNSLKTEDTAVYYCRYVHYGAYYGVDAWGQGTTVTVSSASTKGPSVFPLAPSSKSTSGGTAALGCLVKDYFPEPVTVSWNSGALTSGVHTFPAVLQSSGLYSLSSVVTVPSSSLGTQTYICNVNHKPSNTKVDKKVEPKSCDKTHTCPPCPAPEAAGGPSVFLFPPKPKDTLMISRTPEVTCVVVDVSHEDPEVKFNWYVDGVEVHNAKTKPREEQYASTYRVVSVLTVLHQDWLNGKEYKCKVSNKALPAPIEKTISKAKGQPREPQVYTLPPSRCELTKNQVSLSCAVKGFYPSDIAVEWESNGQPENNYKTTPPVLDSDGSFFLVSKLTVDKSRWQQGNVFSCSVMHEALHNHYTQKSLSLSPDYKDDDDK EPKSSDKTHTCPPCPAPELLGGPSVFLFPPKPKDTLMISRTPEVTCVVVDVSHEDPEVKFNWYVDGVEVHNAKTKPREEQYNSTYRVVSVLTVLHQDWLNGKEYKCKVSNKALPAPIEKTISKAKGQPREPQVCTLPPSRDELTKNQVSLWCLVKGFYPSDIAVEWESNGQPENNYKTTPPVLDSDGSFFLYSKLTVDKSRWQQGNVFSCSVMHEALHNRYTQKSLSLSP light: DIVMTQSPLSLPVTPGEPASISCRSSQSLVHSNRNTYLHWYQQKPGQAPRLLIYKVSNRFSGVPDRFSGSGSGTDFTLKISRVEAEDVGVYYCGQGTQVPYTFGQGTKLEIKRTVAAPSVFIFPPSDEQLKSGTASVVCLLNNFYPREAKVQWKVDNALQSGNSQESVTEQDSKDSTYSLSSTLTLSKADYEKHKVYACEVTHQGLSSPVTKSFNRGEC
